According to article PMC9043842 (RSC Advances, 2021):
Where a chain is given by its changes, count along the chain named. Names and notes keep the numbering of the source. Read-outs that look alike come from different tables or passages of the source.

What was measured:
Test in all cases: SEC
SEC [1] = biological target: the molecule itself
SEC [2] = biological target: the molecule itself; remark: listed apart in the source
SEC [3] = biological target: the molecule itself; remark: listed apart in the source

B1: G80A/H81A (K3A2H) horse myoglobin (natural protein)
chain: GLSDGEWQQVLNVWGKVEADIAGHGQEVLIRLFTGHPETLEKFDKFKHLKTEAEMKASEDLKKHGTVVLTALGGILKKKAAHEAELKPLAQSHATKHKIPIKYLEFISDAIIHVLHSKHPGDFGADAQGAMTKALELFRNDIAAKYKELGFQG
With B1 the “dimer-to-monomer ratio after heating” value (SEC [1]) was 92%, the Ka (SEC [2]) was 920000 M⁻¹ and the dH (SEC [2]) was -30.8 ± 1.1 kcal/mol.

B2: G80A/H81A/L137E (K3A2H-L137E) horse myoglobin (natural protein)
chain: B1 chain with L137E
B2 was tested, and the “dimer-to-monomer ratio after heating” value (SEC [1]) was 97%, the Ka (SEC [3]) was 9.4e+06 M⁻¹ and the dH (SEC [3]) was -63.2 ± 5.1 kcal/mol.

B3: G80A/H81A/L137D (K3A2H-L137D) horse myoglobin (natural protein)
chain: B1 chain with L137D
B3 was tested, and the “dimer-to-monomer ratio after heating” value (SEC [1]) was 98%, the Ka (SEC [3]) was 2.3e+07 M⁻¹ and the dH (SEC [3]) was -100 ± 4 kcal/mol.
